Experimental data reported in the RNAGym collection of RNA variant scans (doi:10.1073/pnas.2313332121).

B1: TPR t1 (parent)
chain: GACCAAUCUGCCCUCAGAGCUCGAGAACAUCUUCGGAUGCAGAGGAGGCAGGCUUCGGUGGCGCGAUAGCGCCAACGUCCUCAACCUCCAAUGCAUCCCACCACAUGAUGAUGCCUGAAGAGCCUUGGUUUUUUG

Variants of: B1
Experiment: polymerase ribozyme fitness, log enrichment relative to wild type (log ratio); higher = more active; in vitro selection for triplet polymerase activity
Outline: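 Streptavidin-bead capture of gel-excised extended constructs, followed by RT-PCR, closed a single triplicate in vitro selection round. That round began by annealing PCR-built, transcribed mutant libraries of each subunit of a heterodimeric triplet polymerase ribozyme with a biotinylated primer, the partner subunit and triplets, then incubating them frozen at −7 °C. After Illumina sequencing of inputs and outputs, genotypes needed ≥10 input reads and ≥1 read per output. Fitness is the base-2 logarithm of genotype enrichment over wild-type enrichment, using inverse-variance-weighted replicate averages.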

In order of rising “polymerase ribozyme fitness (log ratio)” value:
1. C11G G19C G23A G63A A83C C114U C115U C123G  -7.99
2. U54C C56A C64A C85G G117A  -7.73
3. C12A C62G U78C C79A C85G  -7.47
4. C12A G61C U78C C80U C82A A121C  -7.45
5. C56U G69C C89U C123U  -7.26
6. A27G C56U U96A U109G C115G C124U  -7.02
7. C8A C11G C64A A103C A119U G120A  -6.83
8. G51C A111U  -6.8
9. C20A A24U U54A C115G  -6.69
10. G60A C97G G117C  -6.67
11. C22U C70U C88G  -6.53
12. A6U U14A C86A U96A  -6.24
13. A27C G60A G110A  -6.05
14. G47A G93U G113U C123U G135U  -6.04
15. A50C G107U  -5.95
16. C20A U32C C56U G57U G60U C62G  -5.9
17. C12U G39U G113U U116G  -5.84
18. C22G G47U A111C  -5.82
19. A24G G63C G71U C123G  -5.78
20. U38G G47C C114A  -5.64
21. C12U C76G C79A C99U U126C  -5.59
22. C31U C79G C124G  -5.57
23. U7G C22U A68C G93U C115U A121G  -5.51
24. G36A G71A C94A  -5.5
25. C13A G61C A90C  -5.48
26. A6U G44A G63C G113U  -5.44
27. C72G C97A  -5.43
28. C28U C49G A91U U106A  -5.37
29. C56A C104U U106A U109A  -5.35
30. A18G G48A G63A G77A U81C A121U U126G  -5.32
31. C11A C15U G44U C72A U129A U132C  -5.25
32. C20G U55C G57A A90G  -5.05
33. U21C A27U G36C A111U  -4.98
34. G23A C72G  -4.87
35. G93A A111U G122C  -4.63
36. U7A C64A  -4.63
37. G10A C13G C22G A37C C72A A95U  -4.63
38. G39A G48C A50U C94U C114G  -4.57
39. C12A C22U C56U A83C U125A  -4.56
40. G58A G77U U81A U87C C102A  -4.48
41. G48U C72G C86A U125G G127C  -4.47
42. G61C C89G G113U U133C  -4.45
43. G39C C89U C115G C123A  -4.39
44. U9C G17A A18G G69U G113U  -4.32
45. G23U C124A  -4.31
46. A16C C20U C70U  -4.3
47. A6U C8G C34U C53U C82U A84C  -4.3
48. G10A G107A C123U C124A  -4.28
49. A27U G117U C123G  -4.27
50. C8U C12U C49U U116A G120U C123U U126C  -4.26
51. C40A G44C C72G G127A  -4.18
52. G77A U87A A111U G122U  -4.12
53. A6C G36A A66G C72G C76U U78A  -4.1
54. G17U C70A C88A A90G  -4.06
55. C8U A43G C89G C98U G135U  -4.02
56. G47C C102A G120U  -3.97
57. C20A G42U G47U C53U  -3.95
58. C11G G47U G63A C79A  -3.91
59. G42U G63C C76A G77U A90U G117C G127U G128C  -3.83
60. C28U C64U G93U  -3.83
61. C12A C114U G135A  -3.81
62. C3G G42C G44U G63U C123A G128C  -3.73
63. C4U G17U G48A U54G G61A G77U U130C  -3.69
64. G19A C56U C115A  -3.68
65. G36C G44A G71A A75G C89A  -3.61
66. C28U C40G G48U C85A  -3.6
67. C28U C115U  -3.6
68. U21G A37C G44U  -3.59
69. C12G C15U C56U G77C A83C C88A U106A U132A  -3.55
70. A29C A41U C64U  -3.54
71. C56U G69A  -3.53
72. G117C U132A  -3.52
73. C3U A41G C102A G120A  -3.46
74. G45U C72G C89G  -3.39
75. C13A C89G C97U  -3.27
76. G10C G36C G45C U59G C62U C80U  -3.25
77. A27C C56A  -3.22
78. A41U C104A  -3.22
79. G69A U125A  -3.21
80. C12U A108G U130A  -3.19
81. C49A A50C C56A C79A U132A  -3.18
82. U14G C22U A29G C124G U129C  -3.15
83. G45C C56A C98U  -3.15
84. A26U G120U  -3.12
85. C49G G69U U125A G128A  -3.1
86. G51A C72G C79U  -3.08
87. U87C A95U C102A C124A G128C  -3.08
88. C22G C56G C86U C124U  -3.03
89. C20U G36U G135U  -2.95
90. C86A U116G  -2.89
91. C72A A83U G128U  -2.86
92. C72A C79A C94A G127C  -2.85
93. U7A G10C G57U C88G  -2.78
94. U32A G61U  -2.74
95. C12U U21A A29G G63A  -2.72
96. G48A C72U C94U G127A  -2.68
97. G36A C88G  -2.65
98. C53A A68G  -2.61
99. C8G G44A U92A C97U  -2.59
100. C40A G45A  -2.54
101. G42U G57U C85A  -2.51
102. G42C A50U C82A  -2.49
103. A50U G63A U106A G135C  -2.47
104. G77A A84U U112G  -2.45
105. C98U G110A  -2.39
106. A26G G44C  -2.38
107. A2G G48U C80U U130C  -2.35
108. C73U A83C  -2.2
109. A37U G44A  -2.19
110. U55C C72G A83G U126A  -2.13
111. C11A U132A  -2.12
112. A6U A18G C20U C73G U125A  -2.1
113. G63U C85U U130A  -2.02
114. C15G C62U C79A A95G G117U  -1.98
115. A29G C73U C114A  -1.97
116. G51A A74G A83G G120U C123G G128U  -1.97
117. A41U U54C A75G C88A U133A  -1.96
118. A46U G63A  -1.91
119. U21G A84U C114A  -1.88
120. C73U U92C  -1.83
121. G39U G77C  -1.76
122. C82G C101U C115A U125A  -1.73
123. U54A C70U C94A  -1.72
124. A37C A46C C62U U78G  -1.66
125. C15U C56U G117C  -1.61
126. G47C C53U C70A C124A  -1.6
127. C20U C72A  -1.55
128. G69U C82G  -1.46
129. C11A C53G G57A C123G  -1.45
130. C8G U38C G42A C56U C124A  -1.34
131. C11U C49A  -1.28
132. A37C C104A  -1.22
133. G58C U126C  -1.22
134. A118U U133A  -1.21
135. G10U U78C C88G  -1.13
136. G110A A118G  -1.12
137. C8U C40A  -1.07
138. C8U C72G U96G  -1.03
139. U32C A41U C124G G128A  -1.01
140. G17C U21A G39A C72A U112C C115A  -0.984
141. C11U G60C A84U  -0.912
142. G45U C49A  -0.895
143. C101A U132A  -0.824
144. U7G G71C  -0.641
145. C40U G61U A119U G122U  -0.621
146. C104U U116C  -0.608
147. U59A C85A C94A G120A  -0.6
148. C4A U7A G61A  -0.369
149. C20U G69U  -0.346
150. G61U A83C  -0.327
151. G69U G117A  -0.296
152. A6C G47A C123U U125A  -0.223
153. U106C A118U  -0.171
154. C53A C73A  -0.0116
155. U32C G42A G69U  -0.00577
156. C12U C40U A90G  0.0487
157. A2G G36C G48U G52U U59G C79G U112C  0.109
158. C8G C15U G48C C124G  0.169
159. C12U A18G C20U C94U G117U  0.203
160. G61U C104U  0.264
161. U7G G69U  0.479
162. G48U U112C A118U  0.638
163. G45A G52C C72A C123G  0.812
164. C56A C123A  0.85
165. G93U A121U  1.23
166. C4G C8G C72U A121G  1.81
167. G69U C124A  1.92
